Data published in patent publication US7666644B2, “Glyphosate-N-acetyltransferase (GAT) genes” (Verdia, Inc., priority 2004, dated 2010).

B1: GAT4621: altered gat coding sequence encoding 25-8H7 M1MA; Ala codon inserted and more frequently utilized codons throughout (nucleic acid)
DNA: ATGGCTATTGAGGTTAAGCCTATCAACGCAGAGGATACCTATGACCTTAGGCATAGAGTGCTCAGACCAAACCAGCCTATCGAAGCCTGCATGTTTGAGTCTGACCTTACTAGGAGTGCATTTCACCTTGGTGGATTCTACGGAGGTAAACTGATTTCCGTGGCTTCATTCCACCAAGCTGAGCACTCTGAACTTCAAGGTAAGAAGCAGTACCAGCTTAGAGGTGTGGCTACCTTGGAAGGTTATAGAGAGCAGAAGGCTGGTTCCAGTCTCGTGAAACACGCTGAAGAGATTCTCAGAAAGAGAGGTGCTGACATGATCTGGTGTAATGCCAGGACATCTGCTTCAGGATACTACAGGAAGTTGGGATTCAGTGAGCAAGGAGAGGTGTTCGATACTCCTCCAGTTGGACCTCACATCCTGATGTATAAGAGGATCACATAA
modifications: Synthetic nucleic acid sequence GAT4621; CDS (1)...(444): encodes 25-8H7 M1MA (SEQ ID NO:950)
notes: Ala codon inserted and more frequently utilized codons throughout
B2: YitI: most closely related sequence available in Genbank, yitI from Bacillus subtilis (protein, UniProt O06744 1-149, looked up)
Uncharacterized …: MLEVKTISVEDTYEIRHRILRPHQSIEQCKYKEDHAEGSFHLGVFYDGTLISIASFSPQSQPLLTEASAYRLRGMATLEGYRDQKAGSTLIKHAEHKLAESGVQAVWCNARHHVKGYYAKLGWKELGEPFDIPGIGNHIVMYKTLRTSR
B3: GAT4620: altered gat coding sequence encoding 25-8H7 M1MA; Ala codon inserted, first 7 codons more frequently utilized, Ser 62 and Arg 111 changed (nucleic acid)
DNA: ATGGCTATTGAGGTTAAACCTATTAACGCAGAGGATACCTATGACCTAAGGCATAGAGTCCTCAGACCAAACCAGCCGATAGAAGCGTGTATGTTTGAAAGCGATTTAACGCGTAGTGCATTTCACTTAGGCGGCTTCTACGGGGGCAAACTGATTTCCGTCGCTTCATTCCACCAGGCCGAGCACTCTGAACTTCAAGGCAAGAAACAGTACCAGCTTCGAGGTGTGGCTACCTTGGAAGGTTATCGTGAGCAGAAGGCGGGTTCCAGTCTAGTTAAACACGCTGAAGAAATTCTACGTAAGAGGGGGGCGGACATGATTTGGTGTAATGCGAGGACATCTGCCTCAGGCTACTACAGAAAGTTAGGCTTCAGCGAGCAGGGAGAGGTATTCGACACGCCGCCAGTAGGACCTCACATCCTGATGTATAAAAGGATCACATAA
modifications: Synthetic nucleic acid sequence GAT4620; CDS (1)...(444): encodes 25-8H7 M1MA (SEQ ID NO:950)
notes: Ala codon inserted, first 7 codons more frequently utilized, Ser 62 and Arg 111 changed
B4: 17-15H3: evolved GAT; polypeptide SEQ ID NO:601, transgene SEQ ID NO:549 (protein)
chain: MIEVKPINAEDTYELRHRILRPNQPIEACMFESDLLRGAFHLGGYYGGKLISIASFHQAEHSELQGQKQYQLRGMATLEGYREQKAGSSLIKHAEEILRKRGADLLWCNARTSASGYYKKLGFSEQGEVFDTPPVGPHILMYKRIT
modifications: D_S00260796_17-15H3
B5: 25-8H7: further evolved GAT enzyme, SEQ ID NO:907; gene GAT25-8H7/4618 SEQ ID NO:906 (protein)
chain: MIEVKPINAEDTYDLRHRVLRPNQPIEACMFESDLTRSAFHLGGFYGGKLISVASFHQAEHSELQGKKQYQLRGVATLEGYREQKAGSSLVKHAEEILRKRGADMIWCNARTSASGYYRKLGFSEQGEVFDTPPVGPHILMYKRIT
modifications: 25-8H7

Tests used:
[1] = test system: Nicotiana tabacum L. Xanthi leaf explants; assay: Tobacco shoot regeneration with glyphosate selection after Agrobacterium-mediated transformation; type: cell-based; conditions: explants lacking a GAT gene
From the text: Agrobacterium-mediated transformation of plant cells occurs at low efficiencies. To allow propagation of transformed cells while inhibiting proliferation of non-transformed cells, a selectable marker is needed. Antibiotic markers for kanamycin and hygromycin and the herbicide modifying gene bar, which detoxifies the herbicidal compound phosphinothricin, are examples of selectable markers used in plants (Methods in Molecular Biology, 1995, 49:9-18). […] An evolved GAT gene (0—5B8), SEQ ID NO:190, was cloned between a plant promoter (enhanced strawberry vein banded virus) and a […] terminator and introduced into the T-DNA region of the binary vector pMAXY3793 suitable for transformation of plant cells via Agrobacterium tumefaciens EHA105 as shown in FIG. 12. A screenable GUS marker was present in the T-DNA to allow confirmation of transformation. Transgenic tobacco shoots were generated using glyphosate as the only selecting agent.
Axillary buds of Nicotiana tabacum L. Xanthi were subcultured on half-strength MS medium with sucrose (1.5%) and Gelrite (0.3%) under 16-h light (35-42 μEinsteins m^−2 s^−1, cool white fluorescent lamps) at 24° C. every 2-3 weeks. Young leaves were excised from plants after 2-3 weeks subculture and were cut into 3×3 mm segments. A. tumefaciens EHA 105 was inoculated into LB medium and grown overnight to a density of A600=1.0. […]

[2] = test system: Nicotiana benthamiana leaves; assay: Transient expression by Agrobacterium infiltration, GAT protein by SDS-PAGE and blot with antiGAT polyclonal antibody; type: in vivo; conditions: infiltrated leaves, 3 days, as a percent of total protein
Protocol: A binary vector with a dMMV-gat-UBQ3 cassette in the T-DNA was transformed into competent Agrobacterium tumefaciens strain C58 cells by electroporation (McCormac et al., Mol. Biotechnol. 9:155-159, 1998). After growth on LB+40 ug/ml kanamycin plates for 2 days at 28° C., colonies were inoculated into LB+40 ug/ml kanamycin liquid medium and shaken overnight at 28° C. The Agrobacterium cells were collected by centrifugation at 4000 g for 10 minutes and then resuspended in a volume of 10 mM MgSO4 equivalent to the initial culture volume. This bacterial suspension was forced or “infiltrated” into the intercellular spaces of Nicotiana benthamiana leaves using a 1 ml plastic syringe (with no needle). By infiltrating 200-300 μl of bacterial suspension into each spot (typically 3-4 cm^2 in infiltrated area), 4 or more spots could be arranged on a single leaf still attached to the plant. In some cases the gat-containing Agrobacterium strain was diluted 5:1 or 10:1 with a second Agrobacterium strain lacking gat prior to infiltration. This dilution step has the effect of reducing the overall expression of the gat gene in the plant cells, thereby preventing saturation and allowing easier visualization of expression differences between variants and constructs. After 3 days the leaf material was ground, extracted in aqueous buffer, and centrifuged. […]

[3] = GAT activity of native YitI; type: biochemical
[4] = GAT activity with substrate L-aspartate (DTNB); type: biochemical; conditions: for kcat/KM % of glyph: Substrate Aspartate
Protocol: (§1) GAT activity of several GAT polypeptides of the present invention was evaluated with respect to a number of amino acid substrates. The GAT polypeptide, AcCoA and amino substrate were incubated in 25 mM Hepes, pH 6.8, 10% ethylene glycol in the wells of a 96-well polystyrene plate. After 30 minutes, the reactions were stopped by the addition of 30 μl of 10 mM 5,5′-dithiobis-2-nitrobenzoate (DTNB) in 500 mM Tris, pH 7.5. After 2 minutes, absorbance was read at 412 nm in a Spectramax Plus plate reader (Molecular Devices, Sunnyvale, Calif.).

maize plants = assay: Effect of temperature variation on glyphosate tolerance of T1 maize expressing GAT transgenes; type: in vivo; conditions: cool/cold, warm and hot conditions, 0×, 4×, 6×, 8× glyphosate at V2, scored 5 and 14 days
Protocol: Maize plants expressing GAT variant transgenes 10—4F2 (SEQ ID NO:203), 17-15H3 (SEQ ID NO:549), and 18-28D9b (SEQ ID NO:814) were produced using the methods described in Example 13. The effect of temperature on glyphosate tolerance was evaluated in T1 plants. The T1 plants were grown in cool/cold (day 14° C., night 8° C.), warm (day 28° C., night 20° C.), and hot (day 37° C., night 20° C.) conditions. T1 plants were sprayed at V2 with four different glyphosate spray treatments (0×, 4×, 6×, and 8×). Plants were scored at 5 and 14 days after treatment for leaf discoloration and plant height comparisons as described in Example 13.

[5] = type: physicochemical; conditions: buffer, pH 7.2
Protocol: The half lives of several GAT polypeptides were also measured at 37.5° C. according to the following procedure. GAT polypeptides 401 (SEQ ID NO: 6), 17-15H3 (SEQ ID NO: 601), 20-8H12 (SEQ ID NO: 739), 22-13B12 (SEQ ID NO: 781), 22-15B4 (SEQ ID NO: 946) and 22-18C5 (SEQ ID NO: 795) were incubated in a matrix of 25 mM Hepes, pH 7.2, 10 mM KCl and 10% methanol (“HKM”). At various timepoints, aliquots were withdrawn and assayed in triplicate at 22° C. using the continuous spectrophotometric assay described in Example 7 using saturating concentrations of glyphosate (20 mM for 401, 5 mM for the rest) and AcCoA (167 uM). The standard error at each time point averaged about 2.9%. GAT activity was plotted as a function of incubation time and the data was fitted to a curve for exponential decay (y=e^−x), where y is enzyme activity and x is time in hours, from which half life was calculated.

[6] = GAT activity with substrate L-serine (DTNB); type: biochemical; conditions: for kcat/KM % of glyph: Substrate Serine
Protocol: as §1

[7] = GAT activity with substrate glyphosate (amino acid substrate study, DTNB); type: biochemical; conditions: Substrate Glyph, relative to 401
Protocol: as §1

[8] = Transfer of the propionyl group from propionyl CoA to glyphosate, DTNB detection; type: biochemical; conditions: 1 mM propionyl CoA, 5 mM glyphosate or no glyphosate, 30 minutes
Protocol: The ability of GAT variants (B6 (SEQ ID NO:7), 0—6D10 (SEQ ID NO:448), 17-15H3 (SEQ ID NO:601), and 20-8H12c (SEQ ID NO:817)) to transfer the propionyl group from propionyl CoA to glyphosate was tested in reaction mixtures containing 5 mM glyphosate or no glyphosate. Propionyl CoA was present at 1 mM. After 30 minutes the reactions were terminated and the presence of free […] was determined by the addition of DTNB.

Molecule | level of GAT protein accumulated compared to the unmodified GAT25-8H7/4618 gene [2] | increase in activity with aspartate compared to native GAT polypeptide [4] [fold] | kcat/KM % of glyph [4] [%] | activity with respect to serine and phosphoserine compared to native GAT polypeptide [6] | kcat/KM % of glyph [6] [%] | kcat/KM Fold imp. [7] [fold] | other results
O=C(O)CNCP(=O)(O)O [Glyphosate, N-phosphonomethylglycine] |  |  |  |  |  |  | Glyphosate concentrations that completely inhibited any shoot formation [1]: greater than 20 uM
B1 | about two-fold greater |  |  |  |  |  | 
B2 |  |  |  |  |  |  | GAT activity [3]: detectable GAT activity
B3 | comparable |  |  |  |  |  | 
B4 |  | 40 | 3.24 | loss of activity | 0.0882 | 1086 | effect of growth temperature on glyphosate tolerance (maize plants): not adversely effected; Half-life [5]: 45 h; glyphosate-dependent hydrolysis of propionyl CoA [8]: showed glyphosate-dependent hydrolysis of propionyl CoA
B5 |  | 40 | 0.520 | loss of activity | 0.00855 | 7031 | 
